These are literature values, as cited in PMC10991417.

The target in this data set is Vasa CTD (Drosophila melanogaster) (UniProt P09052).
Sequence of UniProt P09052 (P09052 463-623): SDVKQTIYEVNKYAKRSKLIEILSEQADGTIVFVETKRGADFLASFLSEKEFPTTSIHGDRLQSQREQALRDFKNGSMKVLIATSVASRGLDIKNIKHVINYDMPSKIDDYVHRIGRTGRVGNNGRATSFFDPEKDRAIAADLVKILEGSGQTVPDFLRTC

In the case of Oskar eLOTUS (from UniProt P25158), the Kd (as a rule, a measure of binding affinity in units of concentration) was 10 µM.
